Several values for one entry are separate records, joined by “and”; a condition that tells them apart may be missing. Identical values can stand only once.
Tests used:
[1] = tested on: HMGB1-induced TNF-α production in THP-1 cells; test: HMGB1-induced TNF-α production in THP-1 cells; type: cell-based; design: dose or concentration left out as unconfirmed; details: 24 hours
Description: (§1) HMGB1 has been reported to be a ligand for RAGE and the Toll-Like Receptors 2 and 4 (Park et al., J Biol Chem., 2004; 279(9):7370-7). All three of these receptors (RAGE, Toll-like receptor 2, and Toll-like receptor 4) are expressed on THP-1 cells (Parker, et al., J Immunol., 2004,172(8):4977-86.).
In this experiment, THP-1 cells were stimulated to produce TNF-α by HMGB1 ([…]) in the presence or absence of either TTP4000 or anti-RAGE antibodies. Under the conditions used in the assay, HMGB1 should be the only inducer of TNF-α.
as §1, with “HMGB 1” for “HMGB1”, “J.” for “J”
In this experiment, THP-1 cells were stimulated to produce TNF-α by HMGB1 ([…]) in the presence or absence of either TTP4000 or anti-RAGE antibodies. Under the conditions used in the assay, HMGB1 should be the only inducer of TNF-α. The amount of TNF-αsecreted by the THP-1 cells was measured 24 hours after the addition of the proteins to the cell culture using a commercially available ELISA kit for TNF-α (R&D Systems, Minneapolis, Minn.).

[2] = tested on: recurrent diabetes in syngeneic NOD transplant model; test: Syngeneic islet transplantation in NOD mice; type: in vivo
Text: Spontaneous autoimmune non-obese diabetic mice (NOD/LtJ) (12-25 weeks old) served as recipients for islet cells, while young pre-diabetic NOD/LtJ mice (6-7 weeks old) served as donors in syngeneic islet transplantation. Islets for transplantation were isolated as described above in Section A (Allogeneic Islet Transplantation). Diabetic NOD/LtJ mice received islet grafts within 2 days of the diagnosis of diabetes. 500-600 freshly isolated islets (approximately 550 islet equivalents) from donor mice were picked up with an infusion set and transplanted into the subcapular space of the right kidney. Test compounds were administered as soon as the islets were transplanted and continued for approximately 8 weeks. […] Islet graft function was monitored by serial blood glucose measurements daily for the first 2 weeks after islet transplantation, followed by every other day thereafter. Reversal of diabetes was defined as blood glucose less than 200 mg/dl on two consecutive measurements. Percentage graft loss was determined when blood glucose exceeded 250 mg/dl on two consecutive measurements.

amyloid-beta (Abeta) = target: T1, amyloid-beta (Abeta) (Homo sapiens, UniProt P05067); test: In vitro ligand binding ELISA, immobilized amyloid-beta; details: ligand 5 micrograms per well; fusion protein at increasing dilutions, 37° C. one hour
T1 construct: Amyloid Beta (1-40) from Biosource; purchased Biosource
Description: (§2) For example, the RAGE fusion protein may be used in a binding assay to identify potential RAGE ligands. In one example embodiment of such a binding assay, a known RAGE ligand may coated onto a solid substrate (e.g., Maxisorb plates) at a concentration of about 5 micrograms per well, where each well contains a total volume of about 100 microliters (4). The plates may be incubated at 4° C. overnight to allow the ligand to absorb or bind to the substrate. Alternatively, shorter incubation periods at higher temperature (e.g., room temperature) may be used. […] The RAGE fusion protein bound to the immobilized ligand may be detected in a variety of ways. […] The bound complex may be detected by adding the alkaline phosphatase substrate, para-nitrophenylphosphate (PNPP), and measuring conversion of PNPP to para-nitrophenol (PNP) as an increase in absorbance at 405 nm. […] In the absence of ligand (i.e., coating with only BSA) there was no increase in absorbance. […] Binding was detected by the addition of an immunodetection complex containing a monoclonal mouse anti-human IgG1 diluted 1:11,000 to a final assay concentration (FAC) of 21 ng/100 μL, a biotinylated goat anti-mouse IgG diluted 1:500, to a FAC of […], and an avidin-linked alkaline phosphatase. […]

S100b (S100) = target: T2, S100b (S100) (Homo sapiens, UniProt P04271); test: In vitro ligand binding ELISA, immobilized S100b; details: ligand 5 micrograms per well; fusion protein at increasing dilutions, 37° C. one hour
T2 sequence (P04271 1-92): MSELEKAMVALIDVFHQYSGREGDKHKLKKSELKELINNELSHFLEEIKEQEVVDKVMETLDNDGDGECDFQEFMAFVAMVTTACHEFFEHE
Description: as §2

[3] = 300 ug LD + 100 ug qod ip, syngeneic islets in NOD mice

T1 sequence (P05067 672-711 limits assumed): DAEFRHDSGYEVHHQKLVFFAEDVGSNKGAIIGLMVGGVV

B1: TTP-4000: four domain RAGE fusion protein: human RAGE N-terminal sequence (to position 251) linked to human IgG Fc (γ1) without hinge; SEQ ID NO: 34/56 (protein)
chain: QNITARIGEPLVLKCKGAPKKPPQRLEWKLNTGRTEAWKVLSPQGGGPWDSVARVLPNGSLFLPAVGIQDEGIFRCQAMNRNGKETKSNYRVRVYQIPGKPEIVDSASELTAGVPNKVGTCVSEGSYPAGTLSWHLDGKPLVPNEKGVSVKEQTRRHPETGLFTLQSELMVTPARGGDPRPTFSCSFSPGLPRHRALRTAPIQPRVWEPVPLEEVQLVVEPEGGAVAPPSVFLFPPKPKDTLMISRTPEVTCVVVDVSHEDPEVKFNWYVDGVEVHNAKTKPREEQYNSTYRVVSVLTVLHQDWLNGKEYKCKVSNKALPAPIEKTISKAKGQPREPQVYTLPPSRDELTKNQVSLTCLVKGFYPSDIAVEWESNGQPENNYKTTPPVLDSDGSFFLYSKLTVDKSRWQQGNVFSCSVMHEALHNHYTQKSLSLSPGK
[1]
  inhibition of HMGB1-induced TNF-α production: to a greater extent than does the anti-RAGE antibody
[2]; [3]
  day of graft loss for each animal: 40 day and 43 day and 36 day and 45 day and 44 day and 38 day (2×) and 35 day
  day of graft loss, Mean: 39.875 days
[2]; versus animals not treated at all
  time before detection of graft failure, in words: increase in the time before detection of graft failure
amyloid-beta (Abeta)
  binding to immobilized amyloid-beta (increase in absorbance at 405 nm): specifically interact
S100b (S100)
  binding to immobilized S100b (increase in absorbance at 405 nm): specifically interact

— patent US8344120B2, “Nucleic acid molecules encoding rage fusion proteins” (TransTech Pharma, Inc., priority 2006, dated 2013)
